Experiments:
[1] = target: Asp1/2/3 complex (without a tag) (Streptococcus gordonii) (UniProt Q9AET8); experiment: light scattering
[2] = target: Asp1, untagged, as co-expressed with Asp3 and tagged Asp2 (Streptococcus gordonii) (UniProt Q9AET8); experiment: light scattering

Sequence of UniProt Q9AET8 (Q9AET8 whole entry): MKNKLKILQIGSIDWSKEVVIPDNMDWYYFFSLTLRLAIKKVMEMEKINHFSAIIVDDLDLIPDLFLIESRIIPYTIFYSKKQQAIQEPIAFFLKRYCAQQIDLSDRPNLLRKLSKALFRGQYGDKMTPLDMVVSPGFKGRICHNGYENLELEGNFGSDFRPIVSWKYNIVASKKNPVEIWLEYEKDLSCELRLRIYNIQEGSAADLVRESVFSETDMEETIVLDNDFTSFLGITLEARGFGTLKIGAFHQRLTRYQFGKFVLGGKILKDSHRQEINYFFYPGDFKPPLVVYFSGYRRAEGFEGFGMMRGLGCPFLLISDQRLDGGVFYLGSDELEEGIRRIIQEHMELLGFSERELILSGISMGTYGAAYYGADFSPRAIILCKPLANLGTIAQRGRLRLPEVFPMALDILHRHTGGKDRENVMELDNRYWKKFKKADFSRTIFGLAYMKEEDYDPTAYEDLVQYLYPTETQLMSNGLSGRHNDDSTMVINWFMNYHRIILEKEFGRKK

Substance | stoichiometry N [1] | stoichiometry N [2]
Asp1/2/3 complex (without a tag) (from UniProt Q9AET8 1-510) | 2 | –
Asp3 (accessory Sec protein 3) (natural protein) | – | 1

— article doi:10.1101/219105
